Data published in patent US20240190956A1 (IMMUNOGEN, published 2024).
One block for each binder: values may come before it.

What was measured:
CD123 = CD123 (UniProt P26951 19-378, limits assumed); assay: cell-based or functional assay
[1] = target: T1, folate receptor alpha (FR-α) (human, UniProt P15328 25-234); assay: FACS on T47D cells
T1 construct: whole, on cells; also called FOLR1; human folate receptor 1
Procedure: T47D cells were then resuspended in growth media (see above) to neutralize trypsin, and were counted on a Coulter counter. Cells were then washed twice in cold FACS buffer, centrifuging in between washes at 1200 rpm for 5 min.
About 100 μl/mL of 2×10⁴ cells/well were added to wells containing ADC, antibody or FACS buffer only, and incubated at 4° C. for 2 hr. After incubation, cells were centrifuged as before and washed once in 200 μL/well cold FACS buffer. Cells were then stained with 200 μL/well FITC-conjugated Goat Anti-Human-IgG-Fcγ secondary antibody (controls included were unstained cells and those stained with secondary antibody only) for 40 min at 4° C., centrifuged and washed once in 200 μL/well cold PBS-D. Cells were fixed in 200 μL/well 1% formaldehyde/PBS-D and stored at 4° C.
After storage, cellular surface staining of conjugate or antibody was detected using flow cytometry on a FACS Calibur (BD Biosciences). The geometric means were plotted against the log concentration of ADC or antibody using GraphPad Prism and the EC₅₀ was calculated via non-linear 4-parameter logistic regression analysis.

[2] = target: T1, folate receptor alpha (FR-α); assay: cell-based or functional assay

T1 sequence (P15328 25-234): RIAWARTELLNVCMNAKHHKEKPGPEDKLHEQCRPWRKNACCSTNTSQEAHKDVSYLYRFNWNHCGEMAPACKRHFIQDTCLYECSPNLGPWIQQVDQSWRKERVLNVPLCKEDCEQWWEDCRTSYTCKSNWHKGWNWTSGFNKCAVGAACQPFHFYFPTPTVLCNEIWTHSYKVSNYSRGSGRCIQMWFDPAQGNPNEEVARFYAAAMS
Chain of CD123 (P26951 19-378 limits assumed): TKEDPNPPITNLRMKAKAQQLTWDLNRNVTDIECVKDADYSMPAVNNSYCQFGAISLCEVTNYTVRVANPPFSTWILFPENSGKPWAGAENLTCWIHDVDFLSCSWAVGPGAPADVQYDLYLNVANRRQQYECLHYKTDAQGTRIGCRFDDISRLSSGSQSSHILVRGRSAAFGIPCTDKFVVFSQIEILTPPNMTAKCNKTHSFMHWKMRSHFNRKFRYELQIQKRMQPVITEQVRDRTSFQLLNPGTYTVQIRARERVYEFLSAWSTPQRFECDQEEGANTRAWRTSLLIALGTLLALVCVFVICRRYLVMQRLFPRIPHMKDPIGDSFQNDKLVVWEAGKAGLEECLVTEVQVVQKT

B1: huCD123-6Rv1.1S2-SeriMab-D8 (antibody, V domains shown)
VH: SFQLVQSGAEVVKPGASVKMSCKASGYTFTSSIMHWMKQKPGQGLEWIGYIKPYNDGTKYNQKFQGKATLTSDKSSSTANMELNSLTSEDSAVYYCAREGGNDYYDTMDYWGQGTSVTVSS
VL: DIQMTQSPSSMSASVGERVTITCRASQDINSYLSWFQQKPGKSPKTLIYRVNRLVDGVPSRFSGSGSGQDYSLTISSLEPEDMGIYYCLQYDAFPYTFGQGTKLEIKR
IC50 of cytotoxicity on HNT-34 cells (WST-8) (CD123): ~0.002 nM
IC50 of cytotoxicity on MOLM-1 cells (WST-8) (CD123): ~0.03 nM
IC50 of cytotoxicity on SHI-1 cells (WST-8) (CD123): ~0.01 nM
loss of cytotoxicity when CD123 is blocked by unconjugated huCD123-6 antibody (CD123): 100 fold

B4: huMOV19-NTS #2-Linker1-Compound A (antibody)
heavy: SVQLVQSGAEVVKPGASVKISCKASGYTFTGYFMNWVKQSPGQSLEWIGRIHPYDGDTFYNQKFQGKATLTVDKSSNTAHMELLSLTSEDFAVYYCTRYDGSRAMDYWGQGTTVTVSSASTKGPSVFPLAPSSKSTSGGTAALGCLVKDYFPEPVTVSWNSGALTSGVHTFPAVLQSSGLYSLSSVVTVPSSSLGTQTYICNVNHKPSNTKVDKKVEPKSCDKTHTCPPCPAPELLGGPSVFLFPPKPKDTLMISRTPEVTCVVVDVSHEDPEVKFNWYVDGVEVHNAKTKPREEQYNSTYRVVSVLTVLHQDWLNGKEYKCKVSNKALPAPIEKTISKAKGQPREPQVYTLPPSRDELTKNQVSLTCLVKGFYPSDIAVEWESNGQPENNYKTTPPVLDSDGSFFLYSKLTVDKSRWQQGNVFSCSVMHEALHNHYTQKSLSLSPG
light: DIVLTQSPLSLAVSLGQPAIISCKASQSVSFAGTSLMHWYHQKPGQQPRLLIYRASNLEAGVPDRFSGSGSKTDFTLTISPVEAEDAATYYCQQSREYPYTFGGGTKLEIKRTVAAPSVFIFPPSDEQLKSGTASVVCLLNNFYPREAKVQWKVDNALQSGNSQESVTEQDSKDSTYSLSSTLTLSKADYEKHKVYACEVTHQGLSSPVTKSFNRGEC
modifications: N-terminal Ser oxidized to an aldehyde and linked through Linker1 to Compound A (sulfonated DGN462); two Compound A molecules per antibody
cytotoxicity on KB cells (WST-8), potency against the lysine-conjugated ADC, by Compound A concentration [2]: ~5 fold
cytotoxicity on KB cells (WST-8), potency against the lysine-conjugated ADC, by antibody concentration [2]: ~3 fold

More lines, now with the values ahead:

binding result [1]: binds
B2: huMOV19-NTS #2 (antibody)
heavy: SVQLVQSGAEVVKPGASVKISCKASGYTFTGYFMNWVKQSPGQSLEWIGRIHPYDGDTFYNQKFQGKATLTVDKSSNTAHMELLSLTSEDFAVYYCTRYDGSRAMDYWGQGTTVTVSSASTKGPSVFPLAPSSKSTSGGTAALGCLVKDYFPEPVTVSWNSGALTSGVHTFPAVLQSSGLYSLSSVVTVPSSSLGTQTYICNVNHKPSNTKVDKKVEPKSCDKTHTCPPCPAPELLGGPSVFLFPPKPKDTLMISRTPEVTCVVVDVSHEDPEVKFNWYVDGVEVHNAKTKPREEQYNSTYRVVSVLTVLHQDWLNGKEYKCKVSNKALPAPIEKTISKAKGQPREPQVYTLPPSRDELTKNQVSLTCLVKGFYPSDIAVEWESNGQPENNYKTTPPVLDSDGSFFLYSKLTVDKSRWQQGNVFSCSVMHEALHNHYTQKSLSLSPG
light: DIVLTQSPLSLAVSLGQPAIISCKASQSVSFAGTSLMHWYHQKPGQQPRLLIYRASNLEAGVPDRFSGSGSKTDFTLTISPVEAEDAATYYCQQSREYPYTFGGGTKLEIKRTVAAPSVFIFPPSDEQLKSGTASVVCLLNNFYPREAKVQWKVDNALQSGNSQESVTEQDSKDSTYSLSSTLTLSKADYEKHKVYACEVTHQGLSSPVTKSFNRGEC
notes: huMOV19 with the heavy chain N-terminal Gln replaced by Ser (huMov19 HC NTS2); also called SeriMab; huMOV19-SeriMab antibody

binding result [1]: binds
B3: huMOV19 (antibody, human IgG1, kappa)
heavy: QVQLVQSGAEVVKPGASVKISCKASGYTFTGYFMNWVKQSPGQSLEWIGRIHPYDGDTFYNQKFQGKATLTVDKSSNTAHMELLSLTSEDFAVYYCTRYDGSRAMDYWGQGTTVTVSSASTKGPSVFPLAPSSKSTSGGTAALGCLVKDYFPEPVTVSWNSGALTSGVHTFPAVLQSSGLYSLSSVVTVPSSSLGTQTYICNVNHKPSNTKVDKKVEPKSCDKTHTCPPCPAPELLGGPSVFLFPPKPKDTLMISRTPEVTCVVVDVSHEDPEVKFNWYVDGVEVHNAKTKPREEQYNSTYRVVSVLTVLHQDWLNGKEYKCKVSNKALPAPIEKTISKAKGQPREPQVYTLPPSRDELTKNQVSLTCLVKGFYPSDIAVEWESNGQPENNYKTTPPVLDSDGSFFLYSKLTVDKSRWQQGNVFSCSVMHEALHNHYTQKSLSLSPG
light: DIVLTQSPLSLAVSLGQPAIISCKASQSVSFAGTSLMHWYHQKPGQQPRLLIYRASNLEAGVPDRFSGSGSKTDFTLTISPVEAEDAATYYCQQSREYPYTFGGGTKLEIKRTVAAPSVFIFPPSDEQLKSGTASVVCLLNNFYPREAKVQWKVDNALQSGNSQESVTEQDSKDSTYSLSSTLTLSKADYEKHKVYACEVTHQGLSSPVTKSFNRGEC
notes: Humanized anti-folate receptor alpha IgG1/kappa; also called M9346A; unconjugated native huMOV19 antibody
